Experimental data reported in publication doi:10.1101/2024.09.28.615595.
Substitutions are numbered along the chain they refer to. Read-outs that look alike come from different tables or passages of the source.

Columns and labels:
Assay in all cases: EMSA
CsrA [1] = target: T1, CsrA (Escherichia coli, UniProt P69913 1-61)
CsrA [2] = target: T1, CsrA; remark: listed apart in the source
CsrA [3] = target: T1, CsrA; remark: listed apart in the source

T1 sequence (P69913 whole entry): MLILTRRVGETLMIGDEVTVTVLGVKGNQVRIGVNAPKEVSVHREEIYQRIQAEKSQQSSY

B1: uxuB CDS mutant (DOWNSTR mut) (ssRNA)
RNA: GGGAUAAUGCGCUUUCUUUAGCCGUUAAUAUCCACCGGCAUGGCUGCGCGCCGUGCCGGUUCCUUCUUCCUUGCCGUCACUCUUUGAAGACGGAUUCUGGAGUUUACGAUGACUACUAUUGUUGACAGCAAUCUGCCGGUUGCCCGCCCGUCAUUUGAUCAUUCUCGUCUGCAAUCACGCAUUGUGCAUCUAGGUUGCGGGGCGUUUCGCAUGC
Q: B1 was tested. Which “apparent K (half saturation)” value (CsrA [1]) did it give?
A: Its value is roughly 158 nM.

B2: uxuB no GGAs mutant (ssRNA)
RNA: B1 RNA with C69G, C74G, G93C, G100C
Q: How did the “apparent K (half saturation)” value (CsrA [1]) turn out when B2 was run?
A: The value was roughly 193 nM.

B3: uxuB 5' UTR truncation mutant (ssRNA)
RNA: GGGAUAAUGCGCUUUCUUUAGCCGUUAAUAUCCACCGGCAUGGCUGCGCGCCGUGCCGGUUCCUUCUUGCUUGGCGUCACUCUUUGAAGACGCAUUCUGCAGUUUACGA
Q: Does B3 bind (CsrA [2])?
A: Result: no binding

B4: uxuB CDS truncation wild type (ssRNA)
RNA: GGGAUAAUAUGACUACUAUUGUUGACAGCAAUCUGCCGGUUGCCCGCCCGUCAUGGGAUCAUUCUCGUCUGGAAUCACGCAUUGUGCAUCUCGGUUGCGGGGCGUUUC
Q: For B4, which Kd (CsrA [3]) is on record?
A: Its Kd is roughly 164 nM.

B5: uxuB leader wild type (ssRNA)
RNA: GGGAUAAUGCGCUUUCUUUAGCCGUUAAUAUCCACCGGCAUGGCUGCGCGCCGUGCCGGUUCCUUCUUCCUUGCCGUCACUCUUUGAAGACGGAUUCUGGAGUUUACGAUGACUACUAUUGUUGACAGCAAUCUGCCGGUUGCCCGCCCGUCAUGGGAUCAUUCUCGUCUGGAAUCACGCAUUGUGCAUCUCGGUUGCGGGGCGUUUC
Q: How did the Kd (CsrA [1]) turn out when B5 was run?
A: The Kd was roughly 83.2 nM.
